Measurements reported in patent US20100260853A1 (published 2010).
Values joined by “and” are separate entries in the source; they are usually repeats but may differ in a detail not shown here. Identical values can stand only once.

How the values were obtained:
GLP receptor = experiment: cell-based or functional assay
human IL-13 [1] = biological target: T1, human IL-13 (human, UniProt P35225 35-146, limits assumed, biotinylated in the binding ELISA and on the Biacore chip); experiment: sandwich ELISA on hIL-13; 4.7 mg/mL in phosphate/PEG1000/sucrose, LC+, aerosolized material
T1 construct: also called hIL-13; Hu IL-13

human IL-13 [2] = biological target: T1, human IL-13; experiment: sandwich ELISA on hIL-13; 2.6 mg/mL in PBS, E-flow, aerosolized material
human IL-13 [3] = biological target: T1, human IL-13; experiment: sandwich ELISA on hIL-13; 4.7 mg/mL in phosphate/PEG1000/sucrose, E-flow, material remaining in cup
human IL-13 [4] = biological target: T1, human IL-13; experiment: sandwich ELISA on hIL-13; 2.3 mg/mL in phosphate/PEG1000/sucrose, LC+, aerosolized material
human IL-13 [5] = biological target: T1, human IL-13; experiment: Biacore, about 100 RU biotinylated human IL-13 on SA chip, dAb in flow
human IL-13 [6] = biological target: T1, human IL-13; experiment: sandwich ELISA on hIL-13; material in 1xPBS, not nebulised
human IL-13 [7] = biological target: T1, human IL-13; experiment: sandwich ELISA: dAb mixed with hIL-13, capture and detection by mouse anti-human IL-13 antibodies, OD450
cynomolgous IL-13 [8] = biological target: T2, cynomolgous IL-13 (cynomolgous, UniProt Q0PW92 19-132, Presumably biotinylated for capture on the streptavidin (SA) chip; biotinylation sites not stated.); experiment: cell-based or functional assay
human IL-13 [9] = biological target: T1, human IL-13; experiment: cell-based or functional assay
human IL-13 [10] = biological target: T1, human IL-13; experiment: sandwich ELISA on hIL-13; 2.6 mg/mL in PBS, E-flow, material remaining in cup
human IL-13 [11] = biological target: T1, human IL-13; experiment: sandwich ELISA on hIL-13; 2.3 mg/mL in phosphate/PEG1000/sucrose, LC+, material remaining in cup
human IL-13 [12] = biological target: T1, human IL-13; experiment: sandwich ELISA on hIL-13; 4.7 mg/mL in phosphate/PEG1000/sucrose, E-flow, aerosolized material
human IL-13 [13] = biological target: T1, human IL-13; experiment: sandwich ELISA on hIL-13; 2.3 mg/mL in phosphate/PEG1000/sucrose, E-flow, aerosolized material
cynomolgous IL-13 [14] = biological target: T2, cynomolgous IL-13; experiment: Biacore, about 100 RU cynomolgous IL-13 on SA chip, dAb in flow
human IL-13 [15] = biological target: T1, human IL-13; experiment: sandwich ELISA on hIL-13; 2.6 mg/mL in PBS, LC+, material remaining in cup
cynomolgous IL-13 [16] = biological target: T2, cynomolgous IL-13; experiment: cell-based or functional assay; remark: listed apart in the source
human IL-13 [17] = biological target: T1, human IL-13; experiment: cell-based or functional assay; remark: listed apart in the source
human IL-13 [18] = biological target: T1, human IL-13; experiment: sandwich ELISA on hIL-13; 4.7 mg/mL in phosphate/PEG1000/sucrose, LC+, material remaining in cup
human IL-13 [19] = biological target: T1, human IL-13; experiment: binding ELISA: biotinylated human IL-13 on NeutrAvidin plate, bound dAb detected with anti-human Ig (VH specific)
human IL-13 [20] = biological target: T1, human IL-13; experiment: sandwich ELISA on hIL-13; 2.6 mg/mL in PBS, LC+, aerosolized material
human IL-13 [21] = biological target: T1, human IL-13; experiment: 'Binding Assay' on hIL-13 as headed in Table 12; 20 mg/ml in PBS, before nebulisation
human IL-13 [22] = biological target: T1, human IL-13; experiment: 'Binding Assay' on hIL-13 as headed in Table 12; PARI LC*, aerosol sample at 29 mins
human IL-13 [23] = biological target: T1, human IL-13; experiment: 'Binding Assay' on hIL-13 as headed in Table 12; PARI LC*, reservoir sample at 29 mins
human IL-13 [24] = biological target: T1, human IL-13; experiment: 'Binding Assay' on hIL-13 as headed in Table 12; PARI LC*, aerosol sample at 15 mins
human IL-13 [25] = biological target: T1, human IL-13; experiment: 'Binding Assay' on hIL-13 as headed in Table 12; PARI LC*, reservoir sample at 15 mins
human IL-13 [26] = biological target: T1, human IL-13; experiment: 'Binding Assay' on hIL-13 as headed in Table 12; PARI LC*, reservoir sample at 3 mins
human IL-13 [27] = biological target: T1, human IL-13; experiment: 'Binding Assay' on hIL-13 as headed in Table 12; PARI LC*, aerosol sample at 3 mins

T2 sequence (Q0PW92 entry or part of it limits assumed, form in doubt): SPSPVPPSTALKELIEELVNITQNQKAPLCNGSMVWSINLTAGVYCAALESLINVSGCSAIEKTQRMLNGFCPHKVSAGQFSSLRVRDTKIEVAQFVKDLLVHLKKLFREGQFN

Molecule: Exendin 4 (G4S)3 DOM7h-14 fusion (DAT0115) (from UniProt P26349)
- DAT01 cell assay EC50, CHO 6CRE/luciferase reporter (sample: DAT0115 LC+ aerosol 3 mins) (GLP receptor): 0.296 nM
- DAT01 cell assay EC50, CHO 6CRE/luciferase reporter (sample: DAT0115 LC+ aerosol 15 mins) (GLP receptor): 0.316 nM
- DAT01 cell assay EC50, CHO 6CRE/luciferase reporter (sample: DAT0115 LC+ aerosol 29 mins) (GLP receptor): 0.142 nM
- DAT01 cell assay EC50, CHO 6CRE/luciferase reporter (sample: DAT0115 LC+ cup 3 mins) (GLP receptor): 0.725 nM
- DAT01 cell assay EC50, CHO 6CRE/luciferase reporter (sample: DAT0115 LC+ cup 15 mins) (GLP receptor): 0.453 nM
- DAT01 cell assay EC50, CHO 6CRE/luciferase reporter (sample: DAT0115 LC+ cup 29 mins) (GLP receptor): 0.445 nM
- DAT01 cell assay EC50, CHO 6CRE/luciferase reporter (sample: DAT0115 T0) (GLP receptor): 0.178 nM
- DAT01 cell assay EC50, CHO 6CRE/luciferase reporter (sample: DAT0115 e-Flow aerosol 3 mins) (GLP receptor): 0.798 nM
- DAT01 cell assay EC50, CHO 6CRE/luciferase reporter (sample: DAT0115 e-Flow cup 3 mins) (GLP receptor): 0.535 nM

B1: DOM10-53-474 (other)
chain: GVQLLESGGGLVQPGGSLRLSCAASGFTFAWYDMGWVRQAPGKGLEWVSSIDWHGEVTYYADSVKGRFTISRDNSKNTLYLQMNSLRAEDTAVYYCATAEDEPGYDYWGQGTLVTVSS
- IC50 (human IL-13 [1]): 0.0149 nM
- IC50 (human IL-13 [2]): 0.0351 nM
- IC50 (human IL-13 [3]): 0.0214 nM
- IC50 (human IL-13 [4]): 0.0348 nM
- Kd (human IL-13 [5]): 0.028 nM
- IC50 (human IL-13 [6]): 0.0458 nM and 0.0356 nM and 0.0289 nM and 0.0269 nM
- EC50 (human IL-13 [7]): 0.057 nM
- HEK assay cIL-13 EC50 (HEK293 STAT6 SEAP reporter) (cynomolgous IL-13 [8]): 11.1 nM
- HEK assay hIL-13 EC50 (HEK293 STAT6 SEAP reporter, 6 ng/ml IL-13) (human IL-13 [9]): 0.63 nM
- IC50 (human IL-13 [10]): 0.0224 nM
- IC50 (human IL-13 [11]): 0.0317 nM
- IC50 (human IL-13 [12]): 0.0185 nM
- IC50 (human IL-13 [13]): 0.0322 nM
- Kd (cynomolgous IL-13 [14]): 2 nM
- IC50 (human IL-13 [15]): 0.0339 nM
- HEK cell assay EC50, Cyno IL-13 (sample: DOM10-53-474 standard) (cynomolgous IL-13 [16]): 15.2 nM
- HEK cell assay EC50, Hu IL-13 (sample: DOM10-53-474 standard) (human IL-13 [17]): 0.62 nM
- IC50 (human IL-13 [18]): 0.0129 nM
- EC50 (human IL-13 [19]): 1.08 nM
- IC50 (human IL-13 [20]): 0.023 nM

B2: DOM10-275-78 (other)
chain: EVQLLESGGGLVQPGGSLRLSCVASGFTFDVAEMDWVRQAPGKGLEWVSTISPSRRGTYYADSVKGRFTISRDNSKNTLYLQMNSLRAEDTAVYYCAKAYTGRSLWGPGTLVTVSS
- IC50 (human IL-13 [21]): 1.2 nM
- Kd (human IL-13 [5]): 0.072 to 0.1 nM
- IC50 (human IL-13 [22]): 1.1 nM
- EC50 (human IL-13 [7]): 3.33 nM
- HEK assay cIL-13 EC50 (HEK293 STAT6 SEAP reporter) (cynomolgous IL-13 [8]): 1.4 nM
- HEK assay hIL-13 EC50 (HEK293 STAT6 SEAP reporter, 6 ng/ml IL-13) (human IL-13 [9]): 2.5 nM
- IC50 (human IL-13 [23]): 1.1 nM
- Kd (cynomolgous IL-13 [14]): 0.32 to 0.75 nM
- IC50 (human IL-13 [24]): 1 nM
- HEK cell assay EC50, Cyno IL-13 (sample: DOM10-275-78 aerosol 3 mins) (cynomolgous IL-13 [16]): 0.99 nM
- HEK cell assay EC50, Cyno IL-13 (sample: DOM10-275-78 aerosol 15 mins) (cynomolgous IL-13 [16]): 0.95 nM
- HEK cell assay EC50, Cyno IL-13 (sample: DOM10-275-78 aerosol 29 mins) (cynomolgous IL-13 [16]): 0.74 nM
- HEK cell assay EC50, Cyno IL-13 (sample: DOM10-275-78 cup 3 mins) (cynomolgous IL-13 [16]): 1.77 nM
- HEK cell assay EC50, Cyno IL-13 (sample: DOM10-275-78 cup 15 mins) (cynomolgous IL-13 [16]): 1.52 nM
- HEK cell assay EC50, Cyno IL-13 (sample: DOM10-275-78 cup 29 mins) (cynomolgous IL-13 [16]): 0.74 nM
- HEK cell assay EC50, Cyno IL-13 (sample: DOM10-275-78 start) (cynomolgous IL-13 [16]): 0.93 nM
- HEK cell assay EC50, Hu IL-13 (sample: DOM10-275-78 aerosol 3 mins) (human IL-13 [17]): 1.8 nM
- HEK cell assay EC50, Hu IL-13 (sample: DOM10-275-78 aerosol 15 mins) (human IL-13 [17]): 1.01 nM
- HEK cell assay EC50, Hu IL-13 (sample: DOM10-275-78 aerosol 29 mins) (human IL-13 [17]): 0.62 nM
- HEK cell assay EC50, Hu IL-13 (sample: DOM10-275-78 cup 3 mins) (human IL-13 [17]): 1.45 nM
- HEK cell assay EC50, Hu IL-13 (sample: DOM10-275-78 cup 15 mins) (human IL-13 [17]): 2.18 nM
- HEK cell assay EC50, Hu IL-13 (sample: DOM10-275-78 cup 29 mins) (human IL-13 [17]): 0.48 nM
- HEK cell assay EC50, Hu IL-13 (sample: DOM10-275-78 start) (human IL-13 [17]): 0.58 nM
- IC50 (human IL-13 [25]): 1.2 nM
- IC50 (human IL-13 [26]): 1.1 nM
- IC50 (human IL-13 [27]): 1.1 nM
- EC50 (human IL-13 [19]): 1.3 nM
